{
  "source": "patent US8889621B2",
  "about": "“Inhibiting binding of FGF23 to the binary FGFR-Klotho complex for the treatment of hypophosphatemia” (New York University, priority 2009, dated 2014)",
  "key": {"[1]": {"molecular_target": "T1, Klotho ectodomain (Mus musculus, UniProt O35082)", "T1 construct": "The ectodomain of murine Klotho (A35 to K982) was purified from culture media; FLAG (C); made in house; host or cells: HEK293 (secreted into culture media)", "T1 sequence (O35082 35-982)": "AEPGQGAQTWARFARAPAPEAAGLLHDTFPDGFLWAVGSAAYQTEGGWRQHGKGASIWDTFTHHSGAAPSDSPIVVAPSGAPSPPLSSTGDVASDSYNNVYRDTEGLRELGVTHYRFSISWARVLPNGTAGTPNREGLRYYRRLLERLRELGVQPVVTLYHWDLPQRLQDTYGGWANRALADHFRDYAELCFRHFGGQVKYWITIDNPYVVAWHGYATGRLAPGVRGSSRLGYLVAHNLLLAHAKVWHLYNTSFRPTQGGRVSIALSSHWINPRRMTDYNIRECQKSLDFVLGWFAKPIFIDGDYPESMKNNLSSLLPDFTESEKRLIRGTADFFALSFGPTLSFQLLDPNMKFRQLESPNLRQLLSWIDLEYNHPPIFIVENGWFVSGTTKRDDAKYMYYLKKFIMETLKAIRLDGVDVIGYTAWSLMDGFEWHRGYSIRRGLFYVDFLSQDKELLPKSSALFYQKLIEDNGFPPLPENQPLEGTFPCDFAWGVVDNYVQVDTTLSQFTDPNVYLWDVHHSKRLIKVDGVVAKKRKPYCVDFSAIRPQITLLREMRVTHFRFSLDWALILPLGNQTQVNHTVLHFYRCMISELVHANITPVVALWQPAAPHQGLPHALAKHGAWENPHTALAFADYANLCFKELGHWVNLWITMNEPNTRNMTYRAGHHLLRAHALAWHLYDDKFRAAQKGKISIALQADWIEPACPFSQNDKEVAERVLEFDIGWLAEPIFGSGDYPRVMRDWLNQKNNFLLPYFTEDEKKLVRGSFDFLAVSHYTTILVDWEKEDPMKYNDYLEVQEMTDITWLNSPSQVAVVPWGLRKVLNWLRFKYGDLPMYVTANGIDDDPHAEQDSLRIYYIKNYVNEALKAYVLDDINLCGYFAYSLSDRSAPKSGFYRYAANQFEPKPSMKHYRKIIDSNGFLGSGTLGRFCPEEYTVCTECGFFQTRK", "test": "SPR: Klotho ectodomain passed over immobilized FGF23", "assay_type": "binding, murine", "method": "(§1) Surface plasmon resonance (SPR) spectroscopy experiments were performed on a Biacore 2000 instrument (Biacore AB), and FGF23-FGFR1c-Klotho interactions were studied at 25° C. in HBS-EP buffer (10 mM HEPES-NaOH, pH 7.4, 150 mM NaCl, 3 mM EDTA, 0.005% (v/v) polysorbate 20). Proteins were immobilized by amine coupling on flow channels of research grade CM5 chips (Biacore AB). Proteins were injected over a CM5 chip at a flow rate of 50 μl min^−1, and at the end of each protein injection (180 s), HBS-EP buffer (50 μl min^−1) was flowed over the chip to monitor dissociation for 180 s. The chip surface was then regenerated by injecting 50 μl of 2.0 M NaCl in 10 mM sodium acetate, pH 4.5. To control for nonspecific binding in experiments where Klotho ectodomain was immobilized on the chip, β-glucuronidase was coupled to the control flow channel of the chip (˜26-32 fmole/mm^2). […] The data were processed with BiaEvaluation software (Biacore AB). For each protein injection over a Klotho chip, the nonspecific responses from the β-glucuronidase control flow channel were subtracted from the responses recorded for the Klotho flow channel. Similarly, for each protein injection over a FGF chip, the nonspecific responses from the FHF1B control flow channel were subtracted from the responses recorded for the FGF flow channel. […]"}, "[2]": {"molecular_target": "T2, FGFR1c ectodomain (Homo sapiens, UniProt P11362)", "T2 construct": "made in house; host or cells: E. coli", "T2 sequence (P11362 142-365)": "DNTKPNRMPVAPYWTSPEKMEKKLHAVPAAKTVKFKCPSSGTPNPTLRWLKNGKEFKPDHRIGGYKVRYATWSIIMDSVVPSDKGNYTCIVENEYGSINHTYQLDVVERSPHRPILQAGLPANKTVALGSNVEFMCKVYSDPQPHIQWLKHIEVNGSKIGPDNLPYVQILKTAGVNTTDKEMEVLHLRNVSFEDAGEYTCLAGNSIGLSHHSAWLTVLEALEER", "test": "SPR: FGFR1c ectodomain passed over immobilized FGF23", "assay_type": "binding", "method": "as §1"}},
  "data": [
    {"molecule": "FGF23^28-251: human FGF23 (A28 to I251), bioactive full-length ligand expressed in E. coli (protein, listed as Homo sapiens) ASPLLGSSWGGLIHLYTATARNSYHLQIHKNGHVDGAPHQTIYSALMIRSEDAGFVVITGVMSRRYLCMDFRGNIFGSHYFDPENCRFQHQTLENGYDVYHSPQYHFLVSLGRAKRAFLPGMNPPPYSQFLSRRNEIPLIHFNTPIPRRHTRSAEDDSERDPLNVLKPRARMTPAPASCSQELPSAEDNSPMASDPLGVVRGGRVNTHAGGTGPEGCRPFAKFI", "values": [
      {"measurement": "binding of Klotho ectodomain to immobilized FGF23", "setting": "[1]", "value": "bound poorly"},
      {"measurement": "binding of FGF23 to FGFR1c ectodomain alone", "setting": "[2]", "value": "poor binding"}
    ]}
  ]
}
